Earlier results as cited in US20190390191A1, “CONSTRUCTING ENZYME-BASED SENSORS” (PharmaSeq, Inc., priority 2018, published 2019).

How the values were obtained:
[1] = for T. aquaticus; Yeh et al.
[2] = E. coli enzyme; Boulanger et al.

Substance	Km [1] [µM]	Tm [2] [°C]
Alkaline phosphatase	840	–
Alkaline phosphatase of E. coli: zinc-containing dimeric enzyme encoded by the phoA gene of E. coli	–	97
